Three molecules from patent publication US11921118B2, “Methods for proteome labeling” (The Board of Trustees of the Leland Stanford Junior …, priority 2018, dated 2024) can be followed below.

For assay [1], the system named is HEK293T. Description: Proteome labeling after transient transfection and AzY/AzF incubation, DIBO-Alexa Fluor 647 in-gel fluorescence. The assay is classed as cell-based, human. To be noted: transient transfection, 2 mM AzY or AzF. How it is done:
(§1) Cells were lysed, pre-treated with iodoacetamide (IAM) to block background thiol-yne additions (25), and treated with dibenzocyclooctyne (DIBO)-Alexa Fluor 647 dye for copper-free, strain-promoted azide-alkyne cycloaddition.
(§2) Cell transfection, click amino acid labeling, and selection of stably transfected B16-F10 cells. Unless otherwise noted, cells were transiently transfected with Lipofectamine 3000 (Invitrogen) 24 hours prior to 4-Azido-L-phenylalanine (AzF, Chem-Implex) or 3-Azido-L-tyrosine (AzY, Watanabe Chemical Industries) labeling. For initial assessment of labeling across mammalian cell lines, transfected cells were incubated with 2 mM of AzF, AzY, tyrosine, or phenylalanine for 30 hours in 12-well plates prior to lysis. To characterize enzyme selectivity and rate of substrate activation, transfected HEK293T cells were incubated with varying amounts of endogenous and non-canonical amino acids for 24 hours in 12-well plates prior to lysis. For affinity enrichment prior to shotgun mass spectrometry, transfected HEK293T cells were incubated with 125 μM of endogenous and non-canonical amino acids for 24 hours in 10 cm dishes prior to lysis. B16-F10 cells were transfected with mutant synthetases in the Piggybac vector PB513B-1 for 72 hours prior to puromycin selection at 10 μg/ml for 10 days.
(§3) Copper-free reaction of DIBO-Alexa Fluor 647 with click-labeled cell lysates for in-gel fluorescence. After washing in PBS twice, cells were lysed 1% SDS in PBS with EDTA-free protease inhibitor (Roche). […] Protein concentrations were measured with a BCA Protein Assay Kit (Pierce) to ensure equal loading across gel wells (˜23 μg). […] Colloidally stained gels were imaged in the 800-nm channel of an Odyssey CLx (LI-COR), where no bleed-through of the Alexa Fluor 647 signal was detected. Quantification of signal intensities of labeled proteomes from each gel lane were analyzed in ImageJ as before, but with slight modifications (36). […] Instead, the mean and standard deviations were calculated from biological triplicates of whole gel lanes, less the dye front.

The subject of assay [2] is CHO. The description is as above. The assay is classed as cell-based, hamster. To be noted: transient transfection, 2 mM AzY or AzF. How it is done: as §1, §2, §3
Assay [3] concerns B16-F10. The description is as above. The assay is classed as cell-based, mouse. To be noted: transient transfection, 2 mM AzY or AzF. How it is done:
as §1, §2, §3

Assay [4] deals with HEK293T cells. Description: Selectivity of ncAA activation over canonical amino acid, in-gel AF647 fluorescence fitted to Michaelis-Menten kinetics. The format is cell-based, human. To be noted: equimolar concentrations of the two amino acids; serum-containing media, 24 h. The source says:
FIGS. 2A-2E: Identification and characterization of TyrRS and PheRS variants for bioorthogonal labeling of mammalian proteomes with AzY and AzF. FIG. 2A: A single substitution (Y43G) in the amino acid binding site of yeast tyrosyl-tRNA synthetase (ScTyrY43G) enables charging of the azido tyrosine analog AzY onto tRNA^TYr before incorporation into nascent proteins of host cells. FIG. 2B: A single substitution (T413G) in the amino binding site of human or mouse phenylalanyl-tRNA synthetase (MmPheT413G) enables charging of the azido phenylalanine analog AzF onto tRNA^Phe. FIG. 2C: In-gel fluorescence image of Alexa Fluor 647 labeling corresponding to AzY or AzF incorporation into mammalian cell proteomes. ‘WT’: no exogenous amino acid added to media. ‘CP1 switch’: an E. coli TyrRS with the human CP1 peptide engrafted. ‘Mj TyRS’: TyrRS from the species M. jannaschii, without its accompanying tRNA. FIG. 2D: High selectivity of ScTyrY43G for AzY over Tyr. In-gel Alexa Fluor 647 fluorescence and coomassie blue staining of whole gel lanes were quantified to assess the degree of proteome labeling normalized to total protein content. […]
Copper-free reaction of DIBO-Alexa Fluor 647 with click-labeled cell lysates for in-gel fluorescence. […] Protein concentrations were measured with a BCA Protein Assay Kit (Pierce) to ensure equal loading across gel wells (˜23 μg). […]

B1: ScTyrY43G: yeast tyrosyl-tRNA synthetase with Y43G substitution, charges AzY onto tRNA-Tyr; SEQ ID NO:4 (protein)
chain: MSSAATVDPNEAFGLITKNLQEVLNPQIIKDVLEVQKRHLKLGWGTAPTGRPHCGYFVPMTKLADFLKAGCEVTVLLADLHAFLDNMKAPLEVVNYRAKYYELTIKAILRSINVPIEKLKFVVGSSYQLTPDYTMDIFRLSNIVSQNDAKRAGADVVKQVANPLLSGLIYPLMQALDEQFLDVDCQFGGVDQRKIFVLAEENLPSLGYKKRAHLMNPMVPGLAQGGKMSASDPNSKIDLLEEPKQVKKKINSAFCSPGNVEENGLLSFVQYVIAPIQELKFGTNHFEFFIDRPEKFGGPITYKSFEEMKLAFKEEKLSPPDLKIGVADAINELLEPIRQEFADNKEFQEASEKGYPVATPQKSKKAKKPKNKGTKYPGATKTNEIATKLEETKL
B1: the proteome labeling result in assay [1], in assay [2] and in assay [3] was “strong labeling” throughout. The “activation of AzY faster than Tyr” value in assay [4] was roughly 250 fold.

B2: HsPheT413G: human phenylalanyl-tRNA synthetase with T413G substitution; SEQ ID NO:6 (protein)
chain: MADGQVAELLLRRLEASDGGLDSAELAAELGMEHQAVVGAVKSLQALGEVIEAELRSTKHWELTAEGEEIAREGSHEARVFRSIPPEGLAQSELMRLPSGKVGFSKAMSNKWIRVDKSAADGPRVFRVVDSMEDEVQRRLQLVRGGQAEKLGEKERSELRKRKLLAEVTLKTYWVSKGSAFSTSISKQETELSPEMISSGSWRDRPFKPYNFLAHGVLPDSGHLHPLLKVRSQFRQIFLEMGFTEMPTDNFIESSFWNFDALFQPQQHPARDQHDTFFLRDPAEALQLPMDYVQRVKRTHSQGGYGSQGYKYNWKLDEARKNLLRTHTTSASARALYRLAQKKPFTPVKYFSIDRVFRNETLDATHLAEFHQIEGVVADHGLTLGHLMGVLREFFTKLGITQLRFKPAYNPYGEPSMEVFSYHQGLKKWVEVGNSGVFRPEMLLPMGLPENVSVIAWGLSLERPTMIKYGINNIRELVGHKVNLQMVYDSPLCRLDAEPRPPPTQEAA
Consider B2, for which the proteome labeling entry in assay [1], in assay [2] and in assay [3] was “strong labeling” each time.

B3: MmPheT413G: mouse phenylalanyl-tRNA synthetase with T413G substitution, charges AzF onto tRNA-Phe; SEQ ID NO:5 (protein)
chain: MADNPVLELLLRRLEVADGGLDSAELATQLGVEHQAVVGAVKSLQALGEVIEAELRSTKCWELTTEGEEIAREGSHEARVFRSIPLEGLVQSELMHLPSGKVGFSKAMSNKWIRVDKSAADGPRVFRVVDSIEDEVQKRLQLVQAGQAEKLAEKERNELRKRKLLTEVILKTYWVSKGKAFSTSVSKQEAELSPEMISSGSWRDRPFKPYNFSARGVLPDSGHLHPLLKVRSQFRQIFLEMGFTEMPTDNFIESSFWNFDALFQPQQHPARDQHDTFFLRDPAEALQLPMGYVQRVKRTHSQGGYGSQGYKYTWKLEEARKNLLRTHTTAASARALYQLAQKKPFTPAKYFSIDRVFRNETLDATHLAEFHQIEGVIADHGLTLGHLMGVLREFFTKLGITQLRFKPAYNPYGEPSMEVFSYHQGLKKWVEVGNSGVFRPEMLLPMGLPENVSVIAWGLSLERPTMIKYGINNIRELVGHKVNLQMVYDSPVCRLDIEPRSSKTQEAA
In the case of B3, the proteome labeling entry in assay [1], in assay [2] and in assay [3] was “strong labeling” each time. The “activation of AzF faster than Phe” value in assay [4] is “over 11 fold”.
